Measured values: US20240272170A1 (QUANTUM SI, published 2024)
No end group written: not given here. *: point of attachment. FITC = O=C1OC2(c3ccc(O)cc3Oc3cc(O)ccc32)c2ccc(NC(=S)*)cc21

Tests used:
[1] = target: T1, LA peptide; assay: BLI (Octet), peptide on sensor, purified protein in solution
T1 construct: The peptide was coated on the Octet sensor; also called peptide with N-terminal leucine and penultimate alanine
Source text: (§1) In the high-throughput assay, Octet sensors are coated with the peptide of interest and dipped in buffer containing the purified protein. An approximation of relative binding can be obtained by comparing the response after 200 seconds for each protein. Each protein has approximately the same molecular mass and is used at the same concentration, so ranking the proteins by response level in this assay gives an approximation of which proteins have improved binding. Studying the on and off-rate can also give insight into the mechanism of binding.

[2] = target: T2, AA peptide; assay: as above
T2 construct: The peptide was coated on the Octet sensor; also called peptide with N-terminal alanine and penultimate alanine
Source text: as §1

[3] = target: T3, VA peptide; assay: as above
T3 construct: The peptide was coated on the Octet sensor; also called peptide with N-terminal valine and penultimate alanine
Source text: as §1

[4] = target: T1, LA peptide; assay: BLI (Octet), peptide on sensor, purified protein in solution; second row for PS829
Source text: as §1

[5] = target: T2, AA peptide; assay: as above
Source text: as §1

[6] = target: T3, VA peptide; assay: as above
Source text: as §1

[7] = target: T1, LA peptide; assay: BLI (Octet), peptide on sensor, purified protein in solution; second row for PS833
Source text: as §1

[8] = target: T2, AA peptide; assay: as above
Source text: as §1

[9] = target: T3, VA peptide; assay: as above
Source text: as §1

[10] = target: T4, FA peptide (Octet assay of PS557 variants); assay: Octet (BLI), peptide on sensor, response after 200 s association; second PS833 row
T4 construct: Peptide coated on the Octet sensor
Source text: as §1

[11] = target: T5, IA peptide (Octet assay of PS557 variants); assay: as above
T5 construct: Peptide coated on the Octet sensor
Source text: as §1

[12] = target: T6, MA peptide (Octet assay of PS557 variants); assay: as above
T6 construct: Peptide coated on the Octet sensor
Source text: as §1

[13] = target: T7, YA peptide (Octet assay of PS557 variants); assay: as above
T7 construct: Peptide coated on the Octet sensor
Source text: as §1

[14] = target: T8, WA peptide (Octet assay of PS557 variants); assay: as above
T8 construct: Peptide coated on the Octet sensor
Source text: as §1

[15] = target: T9, AA Peptide (fluorescence polarization), AAKLDEESILKQ{LYS(FITC)}; assay: fluorescence polarization, FITC peptide titrated with protein
T9 peptide: AAKLDEESILKQK(FITC)

[16] = target: T10, MA Peptide (fluorescence polarization); assay: as above
T10 peptide: MAKLDEESILKQK(FITC)

[17] = target: VA Peptide (fluorescence polarization) (FITC on the C-terminal lysine); assay: as above
[18] = target: T4, FA peptide (Octet assay of PS557 …); assay: Octet (BLI), peptide on sensor, response after 200 s association
Source text: as §1

[19] = target: T5, IA peptide (Octet assay of PS557 …); assay: as above
Source text: as §1

[20] = target: T6, MA peptide (Octet assay of PS557 …); assay: as above
Source text: as §1

[21] = target: T7, YA peptide (Octet assay of PS557 …); assay: as above
Source text: as §1

[22] = target: T8, WA peptide (Octet assay of PS557 …); assay: as above
Source text: as §1

[23] = target: T11, QP1165 after cleavage to N-terminal arginine (RVWK); assay: on-chip dynamic sequencing of QP1165, PS1875 run, trace Aperture=1353995
T11 peptide: RVWK

[24] = target: T11, QP1165 after cleavage to N-terminal …; assay: on-chip dynamic sequencing of QP1165, PS2123 run, trace Aperture=1168773
[25] = target: T11, QP1165 after cleavage to N-terminal …; assay: on-chip dynamic sequencing of QP1165, 500 nM PS2123 plus five recognizers, 62511 alignments
[26] = target: T11, QP1165 after cleavage to N-terminal …; assay: on-chip dynamic sequencing of QP1165, 500 nM PS1875 plus five recognizers, 11565 alignments
Method: (§2) The semiconductor chip was placed in the sequencing device and a chip check was performed to test electronic circuit function and to optimize laser coupling alignment. The chip was then removed from the device socket and the chip was washed twice with 50 μL of 70% isopropanol, followed by four washes with 30 μL of wash buffer (50 mM MOPS pH 8.0, 60 mM potassium acetate, 50 mM glucose, 20 mM magnesium acetate, and surfactant mix) through a flow cell attached to the chip. A second chip check was then performed. The laser was then blocked via an integrated software-controlled shutter, peptide complex was added to a final concentration of 1-10 nM and mixed thoroughly, and the chip was incubated for 15 min. The chip was then washed six times with wash buffer, followed by addition of an imaging solution (wash buffer with 5 mM Trolox and an oxygen scavenging system). The laser was unblocked and the occupancy percentage (target 10-30%, Poisson distributed) was recorded by acquiring a photobleaching signal from a fluorophore attached to the peptide complex during 5 min of laser illumination. […] Data was recorded for 15 min. The laser was then blocked briefly and aminopeptidases were added to the sequencing reaction via the flow cell and mixed thoroughly (final concentration 2-8 μM PhTET2 and/or 20-80 μM PhTET3, as indicated according to the experiment). The laser was then unblocked, and data was recorded for 10 hours. For all runs, 30 μL of mineral oil was added to fluid reservoirs at each port of the flow cell to prevent evaporation during the run.

[27] = target: T11, QP1165 after cleavage to N-terminal …; assay: on-chip dynamic sequencing of QP1165, PS2121 run, trace Aperture=740473
[28] = target: T11, QP1165 after cleavage to N-terminal …; assay: on-chip dynamic sequencing of QP1165, PS2132 run, trace Aperture=1826247
[29] = target: T11, QP1165 after cleavage to N-terminal …; assay: on-chip dynamic sequencing of QP1165, PS1875 run, trace Aperture=1377116
Method: as §2

[30] = target: T11, QP1165 after cleavage to N-terminal …; assay: on-chip dynamic sequencing of QP1165, PS1875 run, trace Aperture=340501
[31] = target: T11, QP1165 after cleavage to N-terminal …; assay: on-chip dynamic sequencing of QP1165, PS1875 run, trace Aperture=430641
[32] = target: T11, QP1165 after cleavage to N-terminal …; assay: on-chip dynamic sequencing of QP1165, PS2121 run, trace Aperture=1683362
[33] = target: T11, QP1165 after cleavage to N-terminal …; assay: on-chip dynamic sequencing of QP1165, 500 nM PS1875 plus five recognizers, 3369 alignments
[34] = target: T11, QP1165 after cleavage to N-terminal …; assay: on-chip dynamic sequencing of QP1165, 500 nM PS2132 plus five recognizers, 36192 alignments
[35] = target: T11, QP1165 after cleavage to N-terminal …; assay: on-chip dynamic sequencing of QP1165, 500 nM PS1875 plus five recognizers, 7305 alignments
[36] = target: T11, QP1165 after cleavage to N-terminal …; assay: on-chip dynamic sequencing of QP1165, PS1875 run, trace Aperture=295010
[37] = target: T11, QP1165 after cleavage to N-terminal …; assay: on-chip dynamic sequencing of QP1165, 500 nM PS2121 plus five recognizers, 15527 alignments
[38] = target: T11, QP1165 after cleavage to N-terminal …; assay: on-chip dynamic sequencing of QP1165, PS2132 run, trace Aperture=376215

B1: PS829 (designed binder)
chain: MPTAASATESAIEDTPAPARPEVDGRTKPKRQPRYHVVLWDDDDHTYQYVVVMLQSLFGHPRERGYRLAKEMDTLGRVIVLTTTREHAELKRDQIHAFGYDRLLARSKGSMKASIEAEE
notes: Variant of PS557
- Octet response after 200 sec association [1]: 8.5 nm
- Octet response after 200 sec association [2]: 2.5 nm
- Octet response after 200 sec association [3]: 9.5 nm
- Octet response after 200 sec association [4]: 10.9 nm
- Octet response after 200 sec association [5]: 4.5 nm
- Octet response after 200 sec association [6]: 11.3 nm

B2: PS833 (designed binder)
chain: MPTAASATESAIEDTPAPARPVVDGRTKPKRQPRYHVVLWDDDDHTYQYVVVMLQSLFGHPPERGYRLAKEMDTQGRVIVLTTTREHAELKRDQIHAFGYDRLLARSKGSMKASIEAEE
notes: Variant of PS557
- Octet response after 200 sec association [1]: 10.7 nm
- Octet response after 200 sec association [2]: 1 nm
- Octet response after 200 sec association [3]: 8.6 nm
- Octet response after 200 sec association [7]: 12.4 nm
- Octet response after 200 sec association [8]: 0.849 nm
- Octet response after 200 sec association [9]: 10.4 nm

B3: PS833 (designed binder)
chain: MPTAASATESAIEDTPAPARPVVDGRTKPKRQPRYHVVLWDDDDHTYQYVVVMLQSLFGHPPERGYRLAKEMDTQGRVIVLTTTREHAELKRDQIHAFGYDRLLARSKGSMKASIEAEE
notes: Variant of PS557
- Octet response [10]: 0.0889 nm
- Octet response [11]: 10.8 nm
- Octet response [12]: 7.01 nm
- Octet response [13]: 0.109 nm
- Octet response [14]: 0.0006 nm
- Kd [15]: 7080 nM
- Kd [16]: 1040 nM
- Kd [17]: 312 nM
- Octet response [18]: 0.0509 nm
- Octet response [19]: 9.26 nm
- Octet response [20]: 5.11 nm
- Octet response [21]: 0.117 nm
- Octet response [22]: 0.00561 nm

B4: PS1220 (designed binder)
single polypeptide, two PS1122 units in tandem: MHSKFSHAGRICGAKFKVGEPIYRCKECSFDDTCVLCVNCFNPKDHLGHHVYTTICTEFNNGECDCGDKTAWNHTLFCKAEEGSAGSAAGSGEFMHSKFSHAGRICGAKFKVGEPIYRCKECSFDDTCVLCVNCFNPKDHLGHHVYTTICTEFNNGECDCGDKTAWNHTLFCKAEEG
notes: also called PS1220 (R); PS1220 (4-CY3B)
- PD of a recognition segment in an example trace [23]: 0.34 s
- PD of a recognition segment in an example trace [24]: 0.3 s
- IPD (interpulse duration) [25]: 9.74 s
- PD (pulse duration) [25]: 0.4 s
- IPD (interpulse duration) [26]: 10.6 s
- PD (pulse duration) [26]: 0.37 s
- PD of a recognition segment in an example trace [27]: 0.71 s
- PD of a recognition segment in an example trace [28]: 0.27 s
- PD of a recognition segment in an example trace [29]: 0.4 s
- PD of a recognition segment in an example trace [30]: 0.31 s
- PD of a recognition segment in an example trace [31]: 0.31 s
- PD of a recognition segment in an example trace [32]: 0.45 s
- IPD (interpulse duration) [33]: 9.99 s
- PD (pulse duration) [33]: 0.42 s
- IPD (interpulse duration) [34]: 11.1 s
- PD (pulse duration) [34]: 0.44 s
- IPD (interpulse duration) [35]: 10.5 s
- PD (pulse duration) [35]: 0.43 s
- PD of a recognition segment in an example trace [36]: 0.3 s
- IPD (interpulse duration) [37]: 11.9 s
- PD (pulse duration) [37]: 0.46 s
- PD of a recognition segment in an example trace [38]: 0.94 s
